Source: patent publication US20240336656A1
Each block holds one binder with its values, some of them ahead of it. Starred links: 1 amine or outer side, 2 acyl side, 3 side chain; linkers in the order of their positions; H or OH if unused. Positions of bridges follow the written chain, without caps; N, C: chain ends. Non-standard residues stand in square brackets, D forms with d. Groups on a side chain read outwards from the residue. Chains are numbered I, II in the order given. No end group written: not given here. *: point of attachment. TATA = O=C(CC[*:1])N1CN(C(=O)CC[*:2])CN(C(=O)CC[*:3])C1; PEG12 = NCCOCCOCCOCCOCCOCCOCCOCCOCCOCCOCCOCCOCCC(=O)O; Biotin = O=C1N[C@H]2[C@H](CS[C@H]2CCCCC(=O)*)N1; 1Nal = N[C@@H](Cc1cccc2ccccc12)C(=O)O; Hyp = O=C(O)[C@@H]1C[C@@H](O)CN1; hArg = N=C(N)NCCCC[C@H](N)C(=O)O; tBuAla = CC(C)(C)C[C@H](N)C(=O)O; Nle = CCCC[C@H](N)C(=O)O; Pent4ynoyl = C#CCCC(=O)*

Key:
[1] = target: CD137 (TNFRSF9) on cells (human), Q07011; assay: cell-based or functional assay
[2] = target: T1, cyno CD137 extracellular domain (cyno), A9YYE7; assay: SPR direct binding, BCY13582 captured with reversible biotin capture kit, soluble CD137 ECD; n = 1
T1 chain: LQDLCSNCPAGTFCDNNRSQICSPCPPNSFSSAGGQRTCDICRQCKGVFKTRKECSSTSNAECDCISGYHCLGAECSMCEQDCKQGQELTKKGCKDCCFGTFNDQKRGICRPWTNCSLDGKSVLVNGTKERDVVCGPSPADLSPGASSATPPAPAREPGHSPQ

[3] = target: human CD137 extracellular domain (human), Q07011; assay: SPR direct binding, BCY13582 captured with reversible biotin capture kit, soluble CD137 ECD; n = 3
Chain of human CD137 extracellular domain (human), Q07011 (Q07011 24-186): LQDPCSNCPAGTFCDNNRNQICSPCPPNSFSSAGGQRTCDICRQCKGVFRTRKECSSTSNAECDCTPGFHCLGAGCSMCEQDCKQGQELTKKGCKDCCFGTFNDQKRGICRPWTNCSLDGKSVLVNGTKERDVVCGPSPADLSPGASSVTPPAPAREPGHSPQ

Chain of CD137 (TNFRSF9) on cells (human), Q07011 (Q07011 24-255): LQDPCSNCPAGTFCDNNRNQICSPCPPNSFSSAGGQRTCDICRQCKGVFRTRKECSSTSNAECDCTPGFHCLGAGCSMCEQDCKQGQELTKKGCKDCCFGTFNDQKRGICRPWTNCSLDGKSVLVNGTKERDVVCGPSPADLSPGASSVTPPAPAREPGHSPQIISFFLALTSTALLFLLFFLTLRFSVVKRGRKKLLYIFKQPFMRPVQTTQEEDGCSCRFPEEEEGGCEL

EC50 (nM) of fold induction over background, CD137 reporter assay, coculture with HT1376 (human) [1]: 1.7 nM
EC50 (nM) of fold induction over background, CD137 reporter assay, coculture with MDA-MB-468 (human) [1]: 0.84 nM
B1: BCY13583 (peptide)
peptide 1: {N‑(acid-PEG3)‑N‑bis(PEG3-azide) linker}-CP[1Nal][dD]CM[hArg]DWSTP[Hyp]WC
peptide 2: Ac-C[tBuAla]PE[dK](Pent4ynoyl)PYCFADPY[Nle]CA
peptide 3: Ac-C[tBuAla]PE[dK](Pent4ynoyl)PYCFADPY[Nle]CK(Alexa Fluor 488)
modifications: linker I:1-I:5-I:15, II:1-II:8-II:15, III:1-III:8-III:15 via TATA; not fully specified (bridges); also: chains 2 and 3 triazole-clicked via D-Lys(PYA) to the N-(acid-PEG3)-N-bis(PEG3-azide) linker, chain 1 joined to the linker at its N-terminus

Kd [2]: 4.23 nM
Kd [3]: 8.4 nM
EC50 (nM) of fold induction over background, CD137 reporter assay, coculture with HT1376 (human) [1]: 0.58 nM
EC50 (nM) of fold induction over background, CD137 reporter assay, coculture with MDA-MB-468 (human) [1]: 0.34 nM
B2: BCY13582 (peptide)
peptide 1: {N‑(acid-PEG3)‑N‑bis(PEG3-azide) linker}-CP[1Nal][dD]CM[hArg]DWSTP[Hyp]WC
peptide 2: Ac-C[tBuAla]PE[dK](Pent4ynoyl)PYCFADPY[Nle]CA
peptide 3: Ac-C[tBuAla]PE[dK](Pent4ynoyl)PYCFADPY[Nle]CK([PEG12-Biotin])
modifications: linker I:1-I:5-I:15, II:1-II:8-II:15, III:1-III:8-III:15 via TATA; not fully specified (bridges); also: chains 2 and 3 triazole-clicked via D-Lys(PYA) to the N-(acid-PEG3)-N-bis(PEG3-azide) linker, chain 1 joined to the linker at its N-terminus
